Source: US20180186871A1 (SINGAPORE HEALTH SERVICES PTE, published 2018)
Residue numbers refer to the chain shown, from its start.

T1: FLAG-tagged human IL-11 expressed at the cell surface (human, UniProt P20809 22-199)
T1 construct: whole, on cells; also called IL-11 expressing HEK cells; target cells expressing human IL-11 at their surface; not shown: how the protein is held at
T1 sequence (looked up): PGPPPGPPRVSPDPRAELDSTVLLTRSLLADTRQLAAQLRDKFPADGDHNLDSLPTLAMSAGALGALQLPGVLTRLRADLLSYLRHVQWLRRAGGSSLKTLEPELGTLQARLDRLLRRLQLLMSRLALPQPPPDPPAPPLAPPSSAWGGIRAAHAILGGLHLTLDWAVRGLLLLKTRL

T2: human IL-11 (human, UniProt P20809 22-199)
T2 sequence (looked up): T1 sequence (looked up)

B1: BSN-2G6 (antibody, V domains shown)
VH: QVQLQESGPELVKPGASVKIPCKASGYTFTDYNMDWVKQSHGKSLEWIGNINPDNGGTIYNQKFKGKATLTVDKSSSTAYMELRSLTSEDTAVYFCAREGPYGYTWFAYWGQGTLDTVSA
VL: DILLTQSPAILSVSPGERVSFSCRASQSIGTSIHWYQQRTNGSPRLLIKYASESISGIPSRFSGSGSGTDFTLSINSVESEDIADYYCQQSNSWPLTFGAGTKLELK
notes: mouse monoclonal anti-human IL-11 antibody from a hybridoma; also called A5
B2: BSN-2E1 (antibody, V domains shown)
VH: QVQLQESGPELVKPGASVKIPCKASGYTFTDYNMDWVKQSHGKSLEWIGDINPHNGGPIYNQKFTGKATLTVDKSSSTAYMELRSLTSEDTAVYYCARGELGHWYFDVWGTGTTVTVSS
VL: NIVMTQSPKSMSMSVGERVTLTCKASENVVTYVSWYQQKPEQSPKLLIYGASNRYTGVPDRFTGSGSATDFTLTISSVQAEDLADYHCGQGYSYPYTFGGGTKLEIK
notes: mouse monoclonal anti-human IL-11 antibody from a hybridoma; also called A3
B3: BSN-1H2 (antibody, V domains shown)
VH: QAQLQQSGAELARPGASVKLSCKASGYTFTSYGITWVKQRTGQGLEWIGDIYPRSGNIYYNENFKGEATLTADKSSSTAYMQLSRLTSEDSAVYFCARSGWEGWFAYWGQGTLVTVSV
VL: DIVMTQSHKFMSTSVGDRVNITCKASQDVGSAVVWYQQKPGQSPKVLIYWASTRHTGVPDRFTGSGSGTDFTLTISNVQSEDLADYFCQQYSSYRTFGGGTKLEIK
B4: YU100-E01 (scFv)
scFv: QVQLQQSGGGVVQPGRSLRLSCAASGFTFSSYGMHWVRQAPGKGLEWVAVISYDGSNKYYADSVKGRFTISRDNSKNTLYLQMNSLRAEDTAVYYCAKIGATDPLDYWGQGTLVTVSSGSASAPKLEEGEFSEARVQSALTQPASVSGSPGQSITISCTGTSNDIGAYNYVSWYQQHPGKAPKLLIYDVNNRPSGVSDRFSGSKSGNTASLTISGLQAEDEADYYCCSYAGSYSWVFGGGTKLTVLGQPKANPTVTLFPPSS
B5: YU112-E07 (scFv)
scFv: QVQLVQSGGGVVQPGRSLRLSCAASGFTFGSYGMHWVRQAPGKGLEWVAVISYDGSNKYYADSVKGRFTISRDNSKNTLYLQMNSLRAEDTAVYYCAKGSYYFDYWGQGTLVTVSSGSASAPKLEEGEFSEARVEIVMTQSPDSLAVSLGERATINCKSSQSVNSAYLAWYQHKPGQPPRLLIYGASRRVTGVPDRFSGSGSGTDFTLTISSLQPEDFATYYCQQSYSDPRWTFGQGTKVEIK
B6: YU100-D11 (scFv)
scFv: QVQLVQSGGGVVQPGRSLRLSCAASGFTFSSYGMHWVRQAPGKGLEWVAVISYDGSNKYYADSVKGRFTISRDNSKNTLYLQMNSLRAEDTAVYYCAKIGATDPLDYWGQGTLVTVSSGSASAPKLEEGEFSEARVQSALTQPRSVSGSPGQSVTISCTGTSSNVGGYNYVSWYQQHPGKAPKLMIYDVSKRPSGVPDRFSGSKSGNTASLTISGLQAEDEANYYCASYAGNYNWVFGGGTKLTVLGQPKAAPSVTLFPPSS
B7: YU100-E04 (scFv)
scFv: B6 scFv with V5Q, N164D, A181T, S190T, R199H, N223D, A227C, N232S, Y233H, N234I
B8: YU100-E06 (scFv)
scFv: QVQLVESGGGVVQPGRSLRLSCAASGFTFSSYGMHWVRQAPGKGLEWVAVISYDGSNKYYADSVKGRFTISRDNSKNTLYLQMNSLRAEDTAVYYCAKIGATDPLDYWGQGTLVTVSSGSASAPKLEEGEFSEARVQSALTQPASVSGFPEQSITISCTGTSSDVGGYDYVSWYQQHPGKAPKLMIYDVTNRPSGVSNRFSGSKSGNTASLTISGLQPEDEADYYCSSYTSNTTWVFGGGTKLTVLRQPKAAPSVTLFPPSS
B9: YU45-C11/A10 (Fc fusion)
VH: EVQLLESGGGVVQPGRSLRLSCAASGFTFSSYAMHWVRQAPGEGLEWVAVISYDGSNKYYADSVKGRFTISRDNAKDSLYLQMNSLRDEDTAVYYCARRGYFDYWGQGTLVTVSS
VL: QSALTQPASVSGSPGQSITISCTGTSSDVGGYNYVSWYQQHPGKAPKLMIYDVSNRPSGVSNRFSGSKSGNTASLTISGLQAEDEADYYCSSYTSSSTVVFGGGTKLTVL
notes: tested as scFv-Fc (human IgG1); also called #6
B10: YU45-H3 (Fc fusion)
VH: EVQLVESGGGVVQPGRSLRLSCAASGFTFSSYAMHWVRQAPGKGLEWVAVISYDGSNKYYADSVKGRLTISRDNSKNTLYLQMNSLRAEDTAVYYCARMVNLYYGDAFDIWGQGTMVTVSS
VL: B9 VL
notes: tested as scFv-Fc (human IgG1); also called #25
B11: YU46-D3 (Fc fusion, not shown: a dimerising Fc or GST; small tags and cut ends)
VH: B9 VH with E43K, I70S, A75S, D77N, S78T, D88A, R99S, Y101V, F102L
VL: QSALTQPASVSGSPGQSITISCTGTSSDVGNYKYVSWYQQHPGKAPKLMIYDVSNRPSGVSNRFSGSKSGNTASLTISGLQAEDEADYYCSSYTSSSTLVVFGGGTKLTVL
notes: tested as scFv-Fc (human IgG1); also called #56
B12: YU45-H11/D12 (Fc fusion)
VH: EVQLLESGGGVVQPGRSRRLSCAASGFTFSSYGMHWVRQAPGKGLEWVAVISYDGSNKYYADSVKGRFTISRDNSKNTLYLQMNSLRAEDTAVYYCAKLYSGSSNFDYWGQGTLVTVSS
VL: B9 VL with V99W
notes: tested as scFv-Fc (human IgG1); also called #9
B13: YU45-H10 (Fc fusion)
VH: B12 VH with T28S, F29L, S30N
VL: B9 VL with V99W
notes: tested as scFv-Fc (human IgG1); also called #22
B14: YU46-B6 (Fc fusion, not shown: a dimerising Fc or GST; small tags and cut ends)
VH: QVQLVQSGAEVKKPGASVKVSCKASGYTFTSYGISWVRQAPGQGLEWMGWISAYNGNTNYAQKLQGRVTMTTDTSTSTAYMELRSLRSDDTAVYYCARVVAAARSYYYYMDVWGKGTTVTVSS
VL: SSELTQDPAVSVALGQTVRITCQGDSLRGYYATWYQQKPGQAPVVVMYGNNNRPSGIPDRFSGSSSGNTASLTITGAQAEDEADYYCDSRGRSGDHWLFGGGTKLTVL
notes: tested as scFv-Fc (human IgG1); also called #47
B15: YU45-G1 (Fc fusion)
VH: EVQLLESGGGVVQPGRSLRLSCAASGFTFSSYGMHWVRQAPGKGLEWVAVISYDGSNKYYADSVKGRFTISRDNSKNTLYLQMNSLRAEDTAVYYCAKLSGPNGVDYWGQGTLVTVSS
VL: QSALTQPRSVSGSPGQSVTISCTGTSSDVGGYNYVSWYQQHPGKAPKLMIYDVSKRPSGVPDRFSGSKSGNTASLTVSGLQAEDEADYYCCSYAGSYTFVFGGGTKLTVL
notes: tested as scFv-Fc (human IgG1); also called #11
B16: YU46-E3 (Fc fusion, not shown: a dimerising Fc or GST; small tags and cut ends)
VH: B15 VH with E1Q, L5V, K98R, L99I, S100G, P102Y, N103D, G104D, V105F
VL: B9 VL with V99W
notes: tested as scFv-Fc (human IgG1); also called #50
B17: YU45-B6 (Fc fusion)
VH: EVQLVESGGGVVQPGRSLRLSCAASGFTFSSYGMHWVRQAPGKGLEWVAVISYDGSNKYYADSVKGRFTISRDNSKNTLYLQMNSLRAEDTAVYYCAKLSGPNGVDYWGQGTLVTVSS
VL: B15 VL with S27R, K44E, Y51F, V77I, G95D, S96Y, F99W, L107V
notes: tested as scFv-Fc (human IgG1); also called #36
B18: YU45-A8/C6 (Fc fusion)
VH: B15 VH with E1Q, L5V
VL: B9 VL with S54G, S96G, V99W
notes: tested as scFv-Fc (human IgG1); also called #27
B19: YU45-D9/D3 (Fc fusion)
VH: EVQLVESGGGVVQPGRSLRLSCAASGFTFSSYGMHWVRQAPGKGLEWVAVISYDGSNKYYADSVKGRFTISRDNSKNTLYLQMNSLRAEDTAVYYCARLHFSQYFSTIDAFDIWGQGTMVTISS
VL: QSVLTQPPSVSAAPGQEVTISCSGSSSNIGNNYVSWYQHLPGTAPKLLIYDNTERPSGIPDRFSGSRSGTSVTLGITGLQTGDEADYYCGTWDSSLSGGVFGGGTKLTVL
notes: tested as scFv-Fc (human IgG1); also called #31
B20: YU46-A8 (Fc fusion, not shown: a dimerising Fc or GST; small tags and cut ends)
VH: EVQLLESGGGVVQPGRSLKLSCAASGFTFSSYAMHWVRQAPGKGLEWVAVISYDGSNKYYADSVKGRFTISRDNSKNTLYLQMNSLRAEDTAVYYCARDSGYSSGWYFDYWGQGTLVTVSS
VL: B11 VL with A8R, N31G, K33E, K47R, M49L, I77V, S91N, S97G
notes: tested as scFv-Fc (human IgG1); also called #45
B21: YU46-G8 (Fc fusion, not shown: a dimerising Fc or GST; small tags and cut ends)
VH: EVQLVESGGGVVQPGRSLRLSCAASGFSLGSYGMHWVRQAPGKGLEWVAVISYDGSNKYYADSVKGRFTISRDNSKNTLYLQMNSLRAEDTAVYYCAKGSYYFDYWGQGTLVTVSS
VL: DIQMTQSPSSLSASVGDRVTITCRASQGSSSYLAWYQQKPGKAPKLLIYAASSLQSGVPSRFSGSGSGTDFTLTISSLQPEDFATYYCQQSYSTPLYTFGQGTKLEIK
notes: tested as scFv-Fc (human IgG1); also called #54
B22: YU45-G7 (Fc fusion)
VH: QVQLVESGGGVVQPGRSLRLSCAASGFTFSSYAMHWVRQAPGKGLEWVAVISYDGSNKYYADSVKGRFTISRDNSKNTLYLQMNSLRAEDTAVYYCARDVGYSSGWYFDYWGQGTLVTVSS
VL: QSVLTQPPSVSAAPGRTVTISCSGSYSNVGSNLVSWYQQLPGTAPKLVIYEDDKRLSGIPDRFSGSKSGTSASLAISGLQSEDEADYYCAAWDDSLKGHVFGGGTQLTVL
notes: tested as scFv-Fc (human IgG1); also called #33

Target: T1, FLAG-tagged human IL-11 expressed at …
Assay: flow cytometry of hybridoma subclone supernatants on cells transfected with pB1-IL11-hum.FL (FLAG-tagged human IL-11 at the cell surface), anti-mouse IgG detection; sheet says 'flow cytometry (Attunes)', legend says iQue

**Q.** Which “% positive (anti-FLAG positive control = 100%)” value (“% positive” below) does the source give for B1 here?
**A.** 23%

**Q.** Which “% positive” value does the source give for B2 here?
**A.** 164%

**Q.** For B3, which “% positive” value is on record?
**A.** 157%

Target: T2, human IL-11
Assay: cell-based or functional assay

**Q.** Which results are given for B4?
**A.** MMP2 production (ng/ml), TGFB1-stimulated human atrial fibroblasts, Experiment 1 (NEG 42.7, POS 70.2): 59.3 ng/mL; MMP2 production (ng/ml), TGFB1-stimulated human atrial fibroblasts, Experiment 2 (NEG 36.2, POS 62.3): 51.8 ng/mL

**Q.** How did the “MMP2 production (ng/ml), TGFB1-stimulated human atrial fibroblasts, Experiment 1 (NEG 42.7, POS 70.2)” value (from here on “MMP2 production (ng/ml) … (NEG 42.7, POS 70.2)”) turn out when B5 was run?
**A.** 53.5 ng/mL

**Q.** What about the “MMP2 production (ng/ml), TGFB1-stimulated human atrial fibroblasts, Experiment 2 (NEG 36.2, POS 62.3)” value (“MMP2 production (ng/ml) … (NEG 36.2, POS 62.3)” for short) of the same binder?
**A.** 49.1 ng/mL

**Q.** Which results are given for B6?
**A.** MMP2 production (ng/ml), TGFB1-stimulated human atrial fibroblasts, Experiment 1 (NEG 42.7, POS 70.2): 51.2 ng/mL; MMP2 production (ng/ml), TGFB1-stimulated human atrial fibroblasts, Experiment 2 (NEG 36.2, POS 62.3): 47.2 ng/mL

**Q.** How did the “MMP2 production (ng/ml) … (NEG 42.7, POS 70.2)” value turn out when B7 was run?
**A.** 50 ng/mL

**Q.** What about the “MMP2 production (ng/ml) … (NEG 36.2, POS 62.3)” value of the same binder?
**A.** 43.5 ng/mL

**Q.** Which “MMP2 production (ng/ml) … (NEG 42.7, POS 70.2)” value does the source give for B8 here?
**A.** 54.1 ng/mL

**Q.** What about the “MMP2 production (ng/ml) … (NEG 36.2, POS 62.3)” value of the same binder?
**A.** 48.2 ng/mL

Target: T2, human IL-11
Assay: EC50 from the indirect ELISA titrations of FIGS. 28A-28F on plate-coated recombinant human IL-11 (five-parameter fit), ng/ml is the concentration unit of FIG. 28 and paragraph 502

**Q.** Which EC50 does the source give for B9 here?
**A.** 0.0677 µg/mL

**Q.** How did the EC50 turn out when B10 was run?
**A.** 0.126 µg/mL

**Q.** B11 was tested. Which EC50 did it give?
**A.** 0.655 µg/mL

**Q.** How did the EC50 turn out when B12 was run?
**A.** 0.0146 µg/mL

**Q.** B13 was tested. Which EC50 did it give?
**A.** 0.0248 µg/mL

**Q.** B14 was tested. Which EC50 did it give?
**A.** 0.222 µg/mL

**Q.** For B15, which EC50 is on record?
**A.** 0.0428 µg/mL

**Q.** Which EC50 does the source give for B16 here?
**A.** 0.707 µg/mL

**Q.** B17 was tested. Which EC50 did it give?
**A.** 4.98 µg/mL

**Q.** How did the EC50 turn out when B18 was run?
**A.** 0.71 µg/mL

**Q.** Which EC50 does the source give for B19 here?
**A.** 0.71 µg/mL

**Q.** With B20 as the binder, how does the EC50 read?
**A.** 0.351 µg/mL

**Q.** For B21, which EC50 is on record?
**A.** 0.0323 µg/mL

**Q.** B22 was tested. Which EC50 did it give?
**A.** 0.0101 µg/mL
